# Publication PMC9242541, “Importance of Rare DPYD Genetic Polymorphisms for 5-Fluorouracil Therapy in the Japanese Population” (Frontiers in Pharmacology, 2022)
# Substitutions are numbered along the chain they refer to. Names may count otherwise.
# B1: DPD risk variant I560S (DPYD*13) (enzyme, human, UniProt Q12882 4-1025, looked up)
# chain: VLSKDSADIESILALNPRTQTHATLCSTSAKKLDKKHWKRNPDKNCFNCEKLENNFDDIKHTTLGERGALREAMRCLKCADAPCQKSCPTNLDIKSFITSIANKNYYGAAKMIFSDNPLGLTCGMVCPTSDLCVGGCNLYATEEGPINIGGLQQFATEVFKAMSIPQIRNPSLPPPEKMSEAYSAKIALFGAGPASISCASFLARLGYSDITIFEKQEYVGGLSTSEIPQFRLPYDVVNFEIELMKDLGVKIICGKSLSVNEMTLSTLKEKGYKAAFIGIGLPEPNKDAIFQGLTQDQGFYTSKDFLPLVAKGSKAGMCACHSPLPSIRGVVIVLGAGDTAFDCATSALRCGARRVFIVFRKGFVNIRAVPEEMELAKEEKCEFLPFLSPRKVIVKGGRIVAMQFVRTEQDETGKWNEDEDQMVHLKADVVISAFGSVLSDPKVKEALSPIKFNRWGLPEVDPETMQTSEAWVFAGGDVVGLANTTVESVNDGKQASWYIHKYVQSQYGASVSAKPELPLFYTPIDLVDISVEMAGLKFINPFGLASATPATSTSMSRRAFEAGWGFALTKTFSLDKDIVTNVSPRIIRGTTSGPMYGPGQSSFLNIELISEKTAAYWCQSVTELKADFPDNIVIASIMCSYNKNDWTELAKKSEDSGADALELNLSCPHGMGERGMGLACGQDPELVRNICRWVRQAVQIPFFAKLTPNVTDIVSIARAAKEGGANGVTATNTVSGLMGLKSDGTPWPAVGIAKRTTYGGVSGTAIRPIALRAVTSIARALPGFPILATGGIDSAESGLQFLHSGASVLQVCSAIQNQDFTVIEDYCTGLKALLYLKSIEELQDWDGQSPATVSHQKGKPVPRIAELMDKKLPSFGPYLEQRKKIIAENKIRLKEQNVAFSPLKRNCFIPKRPIPTIKDVIGKALQYLGTFGELSNVEQVVAMIDEEMCINCGKCYMTCNDSGYQAIQFDPETHLPTITDTCTGCTLCLSVCPIVDCIKMVSRTTPYEPKRGVPLSVNPVC
# notes: dihydropyrimidine dehydrogenase (DPD), human, DPYD cDNA with a risk variant reported in Caucasians; made by site-directed mutagenesis of the wild-type construct; also called c.1679T>G; 1679T > G (*13); source: 293FT cells, transfected (pcDNA3.4), soluble fraction
# B2: DPD variant C29R (enzyme, human, UniProt Q12882 4-1025, looked up)
# chain: B1 chain with C26R, S557I
# notes: dihydropyrimidine dehydrogenase (DPD), human, DPYD cDNA with a variant found in Japanese individuals; made by site-directed mutagenesis of the wild-type construct; also called 85T > C (*9A, *9B); source: 293FT cells, transfected (pcDNA3.4), soluble fraction
# B3: DPD variant R592W (enzyme, human, UniProt Q12882 4-1025, looked up)
# chain: B1 chain with S557I, R589W
# notes: dihydropyrimidine dehydrogenase (DPD), human, DPYD cDNA with a variant found in Japanese individuals; made by site-directed mutagenesis of the wild-type construct; also called 1774C > T; source: 293FT cells, transfected (pcDNA3.4), soluble fraction
# B4: DPD variant Q604L (enzyme, human, UniProt Q12882 4-1025, looked up)
# chain: B1 chain with S557I, Q601L
# notes: dihydropyrimidine dehydrogenase (DPD), human, DPYD cDNA with a variant found in Japanese individuals; made by site-directed mutagenesis of the wild-type construct; also called 1811A > T; source: 293FT cells, transfected (pcDNA3.4), soluble fraction
# B5: DPD variant V732I (enzyme, human, UniProt Q12882 4-1025, looked up)
# chain: B1 chain with S557I, V729I
# notes: dihydropyrimidine dehydrogenase (DPD), human, DPYD cDNA with a variant found in Japanese individuals; made by site-directed mutagenesis of the wild-type construct; also called 2194G > A (*6); source: 293FT cells, transfected (pcDNA3.4), soluble fraction
# B6: DPD variant V738L (enzyme, human, UniProt Q12882 4-1025, looked up)
# chain: B1 chain with S557I, V735L
# notes: dihydropyrimidine dehydrogenase (DPD), human, DPYD cDNA with a variant found in Japanese individuals; made by site-directed mutagenesis of the wild-type construct; also called 2212G > C; source: 293FT cells, transfected (pcDNA3.4), soluble fraction
# B7: DPD variant G748D (enzyme, human, UniProt Q12882 4-1025, looked up)
# chain: B1 chain with S557I, G745D
# notes: dihydropyrimidine dehydrogenase (DPD), human, DPYD cDNA with a variant found in Japanese individuals; made by site-directed mutagenesis of the wild-type construct; also called 2243G > A; source: 293FT cells, transfected (pcDNA3.4), soluble fraction
# B8: DPD variant T768K (enzyme, human, UniProt Q12882 4-1025, looked up)
# chain: B1 chain with S557I, T765K
# notes: dihydropyrimidine dehydrogenase (DPD), human, DPYD cDNA with a variant found in Japanese individuals; made by site-directed mutagenesis of the wild-type construct; also called 2303C > A; source: 293FT cells, transfected (pcDNA3.4), soluble fraction
# B9: DPD variant H807R (enzyme, human, UniProt Q12882 4-1025, looked up)
# chain: B1 chain with S557I, H804R
# notes: dihydropyrimidine dehydrogenase (DPD), human, DPYD cDNA with a variant found in Japanese individuals; made by site-directed mutagenesis of the wild-type construct; source: 293FT cells, transfected (pcDNA3.4), soluble fraction
# B10: DPD variant V826M (enzyme, human, UniProt Q12882 4-1025, looked up)
# chain: B1 chain with S557I, V823M
# notes: dihydropyrimidine dehydrogenase (DPD), human, DPYD cDNA with a variant found in Japanese individuals; made by site-directed mutagenesis of the wild-type construct; also called 2476G > A; source: 293FT cells, transfected (pcDNA3.4), soluble fraction
# B11: DPD variant I843T (enzyme, human, UniProt Q12882 4-1025, looked up)
# chain: B1 chain with S557I, I840T
# notes: dihydropyrimidine dehydrogenase (DPD), human, DPYD cDNA with a variant found in Japanese individuals; made by site-directed mutagenesis of the wild-type construct; also called 2528T > C; source: 293FT cells, transfected (pcDNA3.4), soluble fraction
# B12: DPD variant R886H (enzyme, human, UniProt Q12882 4-1025, looked up)
# chain: B1 chain with S557I, R883H
# notes: dihydropyrimidine dehydrogenase (DPD), human, DPYD cDNA with a variant found in Japanese individuals; made by site-directed mutagenesis of the wild-type construct; also called 2657G > A (*9B); source: 293FT cells, transfected (pcDNA3.4), soluble fraction
# B13: DPD variant M77V (enzyme, human, UniProt Q12882 4-1025, looked up)
# chain: B1 chain with M74V, S557I
# notes: dihydropyrimidine dehydrogenase (DPD), human, DPYD cDNA with a variant found in Japanese individuals; made by site-directed mutagenesis of the wild-type construct; also called 229A > G; source: 293FT cells, transfected (pcDNA3.4), soluble fraction
# B14: DPD variant N893S (enzyme, human, UniProt Q12882 4-1025, looked up)
# chain: B1 chain with S557I, N890S
# notes: dihydropyrimidine dehydrogenase (DPD), human, DPYD cDNA with a variant found in Japanese individuals; made by site-directed mutagenesis of the wild-type construct; also called 2678A > G; source: 293FT cells, transfected (pcDNA3.4), soluble fraction
# B15: DPD variant S939N (enzyme, human, UniProt Q12882 4-1025, looked up)
# chain: B1 chain with S557I, S936N
# notes: dihydropyrimidine dehydrogenase (DPD), human, DPYD cDNA with a variant found in Japanese individuals; made by site-directed mutagenesis of the wild-type construct; also called 2816G > A; source: 293FT cells, transfected (pcDNA3.4), soluble fraction
# B16: DPD risk variant D949V (enzyme, human, UniProt Q12882 4-1025, looked up)
# chain: B1 chain with S557I, D946V
# notes: dihydropyrimidine dehydrogenase (DPD), human, DPYD cDNA with a risk variant reported in Caucasians; made by site-directed mutagenesis of the wild-type construct; also called c.2846A>T; 2846A > T; source: 293FT cells, transfected (pcDNA3.4), soluble fraction
# B17: DPD variant T990I (enzyme, human, UniProt Q12882 4-1025, looked up)
# chain: B1 chain with S557I, T987I
# notes: dihydropyrimidine dehydrogenase (DPD), human, DPYD cDNA with a variant found in Japanese individuals; made by site-directed mutagenesis of the wild-type construct; also called 2969C > T; source: 293FT cells, transfected (pcDNA3.4), soluble fraction
# B18: DPD variant Y109N (enzyme, human, UniProt Q12882 4-1025, looked up)
# chain: B1 chain with Y106N, S557I
# notes: dihydropyrimidine dehydrogenase (DPD), human, DPYD cDNA with a variant found in Japanese individuals; made by site-directed mutagenesis of the wild-type construct; also called 325T > A; source: 293FT cells, transfected (pcDNA3.4), soluble fraction
# B19: DPD variant N151D (enzyme, human, UniProt Q12882 4-1025, looked up)
# chain: B1 chain with N148D, S557I
# notes: dihydropyrimidine dehydrogenase (DPD), human, DPYD cDNA with a variant found in Japanese individuals; made by site-directed mutagenesis of the wild-type construct; also called 451A > G; source: 293FT cells, transfected (pcDNA3.4), soluble fraction
# B20: DPD variant M166V (enzyme, human, UniProt Q12882 4-1025, looked up)
# chain: B1 chain with M163V, S557I
# notes: dihydropyrimidine dehydrogenase (DPD), human, DPYD cDNA with a variant found in Japanese individuals; made by site-directed mutagenesis of the wild-type construct; also called 496A > G; source: 293FT cells, transfected (pcDNA3.4), soluble fraction
# B21: DPD variant S175L (enzyme, human, UniProt Q12882 4-1025, looked up)
# chain: B1 chain with S172L, S557I
# notes: dihydropyrimidine dehydrogenase (DPD), human, DPYD cDNA with a variant found in Japanese individuals; made by site-directed mutagenesis of the wild-type construct; also called 524C > T; source: 293FT cells, transfected (pcDNA3.4), soluble fraction
# B22: DPD variant A191V (enzyme, human, UniProt Q12882 4-1025, looked up)
# chain: B1 chain with A188V, S557I
# notes: dihydropyrimidine dehydrogenase (DPD), human, DPYD cDNA with a variant found in Japanese individuals; made by site-directed mutagenesis of the wild-type construct; also called 572C > T; source: 293FT cells, transfected (pcDNA3.4), soluble fraction
# Molecular target: the molecule itself
# Experiment: native gel or EMSA; blue native PAGE (Tris-glycine buffer, 5%-20% polyacrylamide gels), 9 μg of the soluble fraction of transfected 293FT cells per lane, immunoblot with polyclonal anti-human DPD antibody; monomer to dimer
row,Protein,stoichiometry N
1,B1,2
2,B2,2
3,B3,2
4,B4,2
5,B5,2
6,B6,2
7,B7,2
8,B8,2
9,B9,2
10,B10,2
11,B11,2
12,B12,2
13,B13,2
14,B14,2
15,B15,2
16,B16,2
17,B17,2
18,B18,2
19,B19,2
20,B20,2
21,B21,2
22,B22,2
